Measured values taken from the RNAGym collection of RNA variant scans (doi:10.1073/pnas.2313332121).
Fewer inactive variants are shown than the library holds.

B1: TPR 5TU (parent)
chain: GGAUCUUCUCGAUCUAACAAAAAAGACAAAUCUGCCACAAAGCUUGAGAGCAUCUUCGGAUGCAGAGGCGGCAGCCUUCGGUGGCGCGAUAGCGCCAACGUUCUCAACUAUGACACGCAAAACGCGUGCUCCGUUGAAUGGAGUUUAUCAUG

Variants of: B1
Test: polymerase ribozyme fitness, log enrichment relative to wild type (log ratio); higher = more active; in vitro selection for triplet polymerase activity
In short: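 Mutant libraries of each subunit of a heterodimeric triplet polymerase ribozyme were built by PCR and transcribed. Each library went through one round of in vitro selection in triplicate: annealing with biotinylated primer, partner subunit and triplets, frozen incubation at −7 °C, gel excision of extended constructs, streptavidin-bead capture and RT-PCR. Input and output libraries were Illumina-sequenced; only genotypes with ≥10 input reads and ≥1 read per output were kept. Fitness is log2(genotype enrichment/wild-type enrichment), using inverse-variance-weighted replicate averages.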
For GGAUCUUCUCGAUCUAACAAAAAAGGCAAAUCUGCCACGAAGCUUGAGAGCAUCUUCGGAUGCAGAGGCGGCAGCCUUCGGUGGUGCGAUAGCGCCAACGUUCUCAACUAUGACACGCAAAACGCGUGCUCCGUUGAAUGGAGUUUAUCAUG, the “polymerase ribozyme fitness (log ratio)” value was no more than -4.2. With GGAUCUUCUCGAUCUAACAAAAAAGGCAAAUCUGCCACAAAGCUUGAGAGCAUCUUCGGAUGCAGAGGCGGCAGCCUUCGGUGGCGCGAUAGCGCCAACGUUCUCAACUAUGACACGCAAAACGCGUGCUCCGUUGAAUGGAGUUUAUCAUG the “polymerase ribozyme fitness (log ratio)” value was -2.11. For GGAUCUUCUCGAUCUAACAAAAAAGCCAAAUCUGCCACAAAGCUGGAGAGCAUCUUCGGAUGUAGAGGCGGCAGUCUUCCGUGGCGCGAUAGCGCCAACGUUCUCAACUAUCACACGCAAAACGCGUGCUCCGUUGAAUGGAGGUUAUCAUG, the “polymerase ribozyme fitness (log ratio)” value was no more than -4.2. In the case of GGAUCUUCUCGAUCUAACAAAAAAGCCAAAUCUGCCACAAAGCUUGAGAGCAUCUUCGGAUGCAGAGGCGGCAGCCUUCGGUGGCACGAUAGCGCCAACGUACUCAACUAUGACACGCAAAACGCGUUCUGCGUUGAAUGGAGUUUAUCAUG, the “polymerase ribozyme fitness (log ratio)” value is reported as no more than -4.2. In the case of GGAUCUUCUCGAUCUAACAAAAAAGCCAAAUCUGCCACAAAGCUUGAGAGCAUCUUCGGAUGCAGAGGCGGCAGCCUUCGGUGGCGCGAUACCGCCAACGUUCUCAACUAUGACACGCAAAACGCGUGCUCCGUUGAAUGGAGUUUAUCAUG, the “polymerase ribozyme fitness (log ratio)” value is reported as -2.71. For GGAUCUUCUCGAUCUAACAAAAAAGCCAAAUCUGCCACAAAGCUUGAGAGCAUCUUCGGAUGCAGAGGCGGCAGCCUUCGGUAGCGCGAUAGCGCCAACGUUCUCAACUAUGACACGCAAAACGCAUGCUCCGUUGGAUGGAGUUUAUCAUG, the “polymerase ribozyme fitness (log ratio)” value was no more than -4.2. For GGAUCUUCUCGAUCUAACAAAAAAGCCAAAUCUGCCACAAAGCUUGAGAGCAACUACGGAUGCAGAGGCGGCAGCCUUCGGUGGCGCGAUAGCGCCAACGUUCUCAACUAUGAUACGCAAAACGCGUGCUCCGUUGAAUGGAGUUUAUCAUG, the “polymerase ribozyme fitness (log ratio)” value was -3.79. In the case of GGAUCUUCUCGAUCUAACAAAAAAGCCAAAUCUGCCACAAAGCUUGAGAGCAUCUUCGGAUGCAGAGGCGGCAGCCUUCGGUGCCGCGAUAGCGCCAACGUUCUCAAGUAUGACACGCAAAACGCGUGCUCCAUUGAAUGGAGUUUAUCAUG, the “polymerase ribozyme fitness (log ratio)” value is reported as no more than -4.2. In the case of GGAUCUUCUCGAUCUAACAAAAAAGCCAAAUCUGCCACAAAGCUUGAGAGCAUCUUCGGAUGCAGAGGCGGCAGCCUUCGGUGCCGCGAUAGCGCCAACGUUCUCAAGUAUGACACGCAAAACGCGUGCUCCUUUGAAUGGAGUUUAUCAUG, the “polymerase ribozyme fitness (log ratio)” value is reported as no more than -4.2. In the case of GGAUCUUCUCGAUCUAACAAAAAAGCCAAAUCUGCCACAAAGCUUGAGAGCAUCUUCGGAUGCAAAGGCGGCAGCCUUAGGUGGCGCGUUAGCGCCCACGUUCUCAACUAUGACACACAAAACGCGUGCUCCGUUGAAUGGAGUUUAUCAUG, the “polymerase ribozyme fitness (log ratio)” value is reported as no more than -4.2. For GGAUCUUCUCGAUCUAACAAAAAAGGCGAAUCUGCCACAAAGCUUGAGAGCAUCUUCGGAUGCAGAGGCGGCAGCCUUCGGUGGCGAGAUAGCGCCAACGUUCUGAAUUAUGACACGCAAAACGAGUGCUCCGUUGAAUGGAGUUUAUCAUG, the “polymerase ribozyme fitness (log ratio)” value was no more than -4.2. For GGAUCUUCUCGAUCUAACAAAAAAGCCAAAUCUGCCACAAAGCUUGAGAGCAUCUUCGGAUGCAGAGGCGGCAGCCUUCGGUGGCGCGAUACCGCCAACGUUCCCAAUUAUGACCCGCAAAACGCGUGCUCCGUUGAAUGGAGUUUAUCAUG, the “polymerase ribozyme fitness (log ratio)” value was no more than -4.2. For GGAUCUUCUCGAUCUAACAAAAAAGGCAAAUCUGCCACAAAGCUUGAGCGCAUCUUCGGAUGCAGAGGCGGCAGCCUUCGGUGGCGCGUUAACGCCAACGUGCUCAACUAUGACACGCAAAACGCGUGCUCCGUUGAAUUGAGUUUAUCAUG, the “polymerase ribozyme fitness (log ratio)” value was no more than -4.2. For GGAUCUUCUCGAUCUAACAAAAAAGCCAAAUCUGCCACAAAGCUUGAGAGCAUCUUCGGAUGCAGAGGCGGCAGCCUUCGGUGGCGCGAUAGCGCCAACGUUCUCAACUAUGACACCCAAAACGCGUGCUCCGUUGAAUGGAGUUUAUCAUG, the “polymerase ribozyme fitness (log ratio)” value was -2.51. With GGAUCUUCUCGAUCUAACAAAAAAGCCAAAUCUGCCACAAAGCUUGAGAGCAUCUUCGGAUGCAGAGGCGGCAGCCUUCGGUGGCGCGAUAGCGCUAACGUUCUCAACUAUGACACGCAAAACACGUGCUCCGUUGAAUGGAGUUUAUCAUG the “polymerase ribozyme fitness (log ratio)” value was -1.67. In the case of GGAUCUUCUCGAUCUAACAAAAAAGCCAAAUCUGCCACAAAGCAUGAGAGCAUCGUCGGAUGCAGAGGCGGCAGCCUUCGGUGGCACCAUAGCGCCAACGUUCUCAACUAUGACACGCAAAACGCGUGCUCCGUUGAAUGGAGUUUAUCAUG, the “polymerase ribozyme fitness (log ratio)” value is reported as no more than -4.2. For GGAUCUUCUCGAUCUAACAAAAAAGCCAAAUCUGCCACAAAACUUGAGAGCAUCUUCGGAUGCAGAGGCGGCAGCCUUCGGUGGCGCGAUAGCGCCAACGUUCUCACCUAUGACACGCAAAACGCGUGCUCCGUUGAAUGGAGUUUAUCAUG, the “polymerase ribozyme fitness (log ratio)” value was no more than -4.2. With GGAUCUUCUCGAUCUAACAAAAAAGCCAAAUCUGCCACAAAGCUUGAGAGCAUCUUCGGAUGCAGAGGCGGCAGCCUUCGAUGGCGUCAUAGCGCCAACGUUCUCAACUAUGACACGCAAAACCCGUGCUCCGUUUAAUCGAGUUUAUCAUG the “polymerase ribozyme fitness (log ratio)” value was no more than -4.2. With GGAUCUUCUCGAUCUAACAAAAAAGGCAACUCUGCCACCAAGCUUGUGAGCAUCUUCGGAUGCAGAGGCGGCAGCUUUCGGUGGCGCGAUAGUGCCGACGUUCUCAACUAUGACACGCAAAACGCGUGCUCCAUUGAAUUAAGUUUAUCAUG the “polymerase ribozyme fitness (log ratio)” value was -4.02.
